Changes are numbered by the printed parent chain.
B1: pgDD40-SZ-12 (VHH, not shown: small tags and cut ends)
VHH: EVQLVESGGGLVQPGGSLKLSCAASGFAFSRYTMSWVRQAPGKGLEWVSGIDSGGGRTSYINSVKGRFTISRDNAKNTLYLQMNSLKPEDTAVYHCAQGGDSGSYYRTSWGQGTQVTVSS
B2: pgDD40-SZ-1 (VHH, not shown: small tags and cut ends)
VHH: QVQLVESGGALAQPGGSLRLSCEASTNVRSVNAMAWYRQGPGKPRELVANITSDDATYYADSVKGRFTLSREGARNTVYLQMNSLKPEDTAVYQCNVHYTSWGGIRRDYWGRGTQVTVSS
B3: pgDD40-SZ-5 (VHH, not shown: small tags and cut ends)
VHH: B2 VHH with T26E, D54G
B4: pgDD40-SZ-2 (VHH, not shown: small tags and cut ends)
VHH: B2 VHH with Q1E, T26A, N27T, V28I, L47M, D54G, A56T, V97I, W102T
B5: pgDD40-SZ-3 (VHH, not shown: small tags and cut ends)
VHH: QVQLVESGGGLVQAGDSLRLSCTASGRAFNTYTMAWFRQAPGKERDFVAAISRDGTITHYADSVKGRFTTTRDNAKNTMYLQMSSLKYDDTAVYYCAARRVGAVPERESAYEHWGQGTQVTVSS
B6: 4-1BB-10 (VHH, not shown: small tags and cut ends)
VHH: EVQLVESGGGLVQAGGSLRLSCAASGAIFSYNGMAWYRQAPGKQREFVAVITPDGTTKYGDSVKGRFTISRDITKNTVDLEMNSLKPEDTAVYTCAALRNSGSTSWGQGTQVTVSS
B7: 4-1BB-3 (VHH, not shown: small tags and cut ends)
VHH: EVQLVESGGGLVQAGGSLRLSCAASGNIFSYNGMAWYRQAPGNQRELVAVVAIDGTAKYADTVKGRFTISRDNIKNTVNLEMNSLKPEDTAVYTCAALRNSGSTSWGQGTQVTVSS
B8: 4-1BB-9 (VHH, not shown: small tags and cut ends)
VHH: QVQLVESGGGLVQAGGSLRLSCAASGSIFSYNAVAWYRQAPGKQRELVAVITSGGETTKYADSVKGRFTISRDITKNAVDLQMVSLKPEDTAVYTCAALRNSGSTSWGQGTQVTVSS
B9: 4-1BB-2 (VHH, not shown: small tags and cut ends)
VHH: QVQLVESGGGLVQAGGSLRLSCAASGSIFSYNAMAWYRQAPGKQRELVALITSDRTTKYADSVKGRFTISRDDTKNTVDLEMNSLKPEDTAVYTCAALLNSARTSWGQGTQVTVSS
B10: 4-1BB-36 (VHH, not shown: small tags and cut ends)
VHH: EVQLVESGGGLVQPGGSLRLSCAASRRTFSSYTAGWFRQAPGKEREFVASIRWISGTTTYADSVNGRFTISRDIAKNTVYLQMNSLKPDDTAVYYCAVDLSSDNDYDYWGQGTQVTVSS
B11: 4-1BB-39 (VHH, not shown: small tags and cut ends)
VHH: QVQLGSLGGGSAQPGGSLRLSCTGSGNVYDFVVMGWYRQFPGRQRELVANITGRASPNYVDSVKGRFTISRDNAQNTVHLQMNNLKVEDSAIYYCYAAQQLTTIAGVMTLDYWGSGTQVTVSS
B12: 4-1BB-1 (VHH, not shown: small tags and cut ends)
VHH: QVQLVESGGGLVQAGGSLRLSCAASENIFSFNAMAWYRQAPGKQRELVALITGDGTTKYADSVKGRFTIARLNAKNTVNLEMNSLKPEDTAVYTCAALRNSDRTSWGQGTQVTVSS
B13: MSA1 (VHH)
VHH: EVQLVESGGGLAQAGGSLRLSCADSGHSFSLYAMAWFRQTPEKEREFVAAISSSGGDTYYADSVKGRFTISRENAKNTAYLQMDSLKPGDTAVYFCAGNYYTSQLMRGMYEHWGQGTQVTVSS
notes: Llama single domain antibody with C-terminal His-tag, made in HEK293; not shown: C-terminal His-tag
B14: MSA B1 (VHH)
VHH: EVQLVESGGGLVQPGGSLHLSCAASRLTTGVTFSDYGMAWFRQAPGAERELLANINWSGQYTNYRDSVKGRAAIFRDNAKNTLYLNINSLKAEDTAVYYCAASSRKYGPGIKSQYEWWGQGTQVTVSS
notes: as for B13

The binders below were run against T1, recombinant human CD40-Fc (human, UniProt P25942 21-193) (assay: ELISA, CD40-Fc coated, VHH at 1.6 nM).
T1 construct: also called rh-CD40-Fc; CD40-hFc
T1 sequence (P25942 21-193): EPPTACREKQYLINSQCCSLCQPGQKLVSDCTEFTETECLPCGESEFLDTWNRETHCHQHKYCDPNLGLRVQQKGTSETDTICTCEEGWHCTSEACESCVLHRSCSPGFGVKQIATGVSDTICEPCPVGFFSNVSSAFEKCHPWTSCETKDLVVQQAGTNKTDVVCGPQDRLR
Protocol: (§1) After four times washing with PBST, the plate was incubated with detecting antibody anti-his-HRP (1:4000 dilution) 100 μl per well for one hour with shaking at 60 rpm. The plate was developed with 100 μL of TMB per well in the dark and then stopped by 50 μL of stop solution per well.

OD450	Binder
0.061	B1
0.866	B2
0.85	B3
0.94	B4
1.02	B5

These binders were tested against T1, recombinant human CD40-Fc (assay: ELISA, CD40-Fc coated, VHH at 8 nM).
Protocol: as §1

OD450	Binder
0.09	B1
1.66	B2
1.41	B3
1.59	B4
1.59	B5

These binders were tested against T2, 4-1BB Fc (human, UniProt Q07011 24-183) (assay: ELISA, 4-1BB Fc coated, VHH at 0.05 nM).
T2 construct: also called rh-41BB; 41BB-hFc
T2 sequence (Q07011 24-183): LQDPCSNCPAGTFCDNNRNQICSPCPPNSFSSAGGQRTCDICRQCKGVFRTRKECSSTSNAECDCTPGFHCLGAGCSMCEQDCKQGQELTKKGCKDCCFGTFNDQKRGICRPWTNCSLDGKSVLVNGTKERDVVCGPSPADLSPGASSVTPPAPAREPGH
Protocol: (§2) After four rounds of washing with PBST, the plate was incubated with detecting antibody anti-his-HRP (1:4000 dilution) 100 μl per well for one hour with shaking at 60 rpm. The plate was developed with 100 μL of TMB per well in the dark and then stopped by 50 μL of stop solution per well. […] Data was analyzed using GraphPad Prisma 9.1.

OD450	Binder
0.065	B6
0.06	B7
0.065	B8
0.067	B9
0.078	B10
0.068	B11
0.061	B12

The binders below were run against T2, 4-1BB Fc (assay: ELISA, 4-1BB Fc coated, VHH at 0.0005 nM).
Protocol: as §2

OD450	Binder
0.068	B6
0.062	B7
0.067	B8
0.058	B9
0.071	B10
0.072	B11
0.065	B12

What follows are binders tested against T2, 4-1BB Fc (assay: ELISA, 4-1BB Fc coated, VHH at 500 nM).
Protocol: as §2

OD450	Binder
1.58	B6
0.165	B7
0.264	B8
0.112	B9
4.25	B10
0.098	B11
0.547	B12

The binders below were run against T1, recombinant human CD40-Fc (assay: ELISA, CD40-Fc coated, VHH at 200 nM).
Protocol: as §1

OD450	Binder
0.895	B1
1.69	B2
1.73	B3
1.52	B4
1.64	B5

These binders were tested against T2, 4-1BB Fc (assay: ELISA, 4-1BB Fc coated, VHH at 5 nM).
Protocol: as §2

OD450	Binder
0.828	B6
0.089	B7
0.084	B8
0.07	B9
1.35	B10
0.07	B11
0.108	B12

The binders below were run against T1, recombinant human CD40-Fc (assay: ELISA, CD40-Fc coated, VHH at 0.0026 nM).
Protocol: as §1

OD450	Binder
0.06	B1
0.055	B2
0.059	B3
0.058	B4
0.055	B5

What follows are binders tested against T1, recombinant human CD40-Fc (assay: ELISA, CD40-Fc coated, VHH at 0.32 nM).
Protocol: as §1

OD450	Binder
0.059	B1
0.248	B2
0.25	B3
0.293	B4
0.287	B5

These binders were tested against T1, recombinant human CD40-Fc (assay: ELISA, CD40-Fc coated, VHH at 40 nM).
Protocol: as §1

OD450	Binder
0.256	B1
1.72	B2
1.68	B3
1.72	B4
1.64	B5

The binders below were run against T3, human serum albumin (human, UniProt P02768 25-609) (assay: BLI (Gator), His-tagged VHH on anti-His sensor, HSA 100 nM in solution).
T3 construct: also called HSA
Protocol: (§3) Kinetic binding analysis of MSA VHHs were performed with Gator Prime system equipped with analyze software. […] The experiments were done at 30° C. Prior to analysis, sensors were socked in Q buffer for 600 sec with shaking at 1000 rpm, and then 2 μM of HIS tagged MSA VHHs were loaded to Anti-His sensors with shaking at 400 rpm for 120 sec. Loaded sensors were transferred into Q buffer for 60 sec. Association of HSA or MSA at 100 nM was initiated and monitored for 120-180 sec with shaking at 1000 rpm, and finally dissociation in Q buffer for 120-180 sec with 1000 rpm shaking. Software V2.0 (Gator Bio) was used for data analysis. The on-rate (Kₒₙ) and off-rate (Kd) were determined by fitting of the association and dissociation phases of each sample. The mathematical model used assumes a 1:1 stoichiometry, fitting only one analyte in solution binding to one binding site on the surface. The equilibrium dissociation constant (KD), a measure for affinity, was then calculated as the ratio of Kd and Kₒₙ.

koff	Kd	kon	Binder
0.0217 s⁻¹	–	–	B13
0.00511 s⁻¹	11.3 nM	454000 M⁻¹ s⁻¹	B14

These binders were tested against T2, 4-1BB Fc (assay: ELISA, 4-1BB Fc coated, VHH at 0.5 nM).
Protocol: as §2

OD450	Binder
0.11	B6
0.065	B7
0.061	B8
0.059	B9
0.202	B10
0.059	B11
0.106	B12

Each binder was assayed against T2, 4-1BB Fc (assay: ELISA, 4-1BB Fc coated, VHH at 50 nM).
Protocol: as §2

OD450	Binder
1.76	B6
0.183	B7
0.292	B8
0.129	B9
3.19	B10
0.065	B11
0.308	B12

Each binder was assayed against T1, recombinant human CD40-Fc (assay: ELISA, CD40-Fc coated, VHH at 0.013 nM).
Protocol: as §1

OD450	Binder
0.058	B1
0.056	B2
0.061	B3
0.062	B4
0.055	B5

Each binder was assayed against T4, murine serum albumin (murine, UniProt P07724 25-608) (assay: BLI (Gator), His-tagged VHH on anti-His sensor, murine serum albumin 100 nM in solution).
T4 construct: As antigen 'MSA' means murine serum albumin; the VHHs also carry the label MSA; also called MSA
Protocol: as §3

Kd	koff	kon	Binder
6.64 nM	0.00117 s⁻¹	176000 M⁻¹ s⁻¹	B13
5.32 nM	0.000605 s⁻¹	114000 M⁻¹ s⁻¹	B14

These binders were tested against T2, 4-1BB Fc (assay: ELISA, 4-1BB Fc coated, VHH at 0.00005 nM).
Protocol: as §2

OD450	Binder
0.068	B6
0.066	B7
0.07	B8
0.065	B9
0.073	B10
0.063	B11
0.067	B12

What follows are binders tested against T1, recombinant human CD40-Fc (assay: ELISA, CD40-Fc coated, VHH at 0.064 nM).
Protocol: as §1

OD450	Binder
0.065	B1
0.074	B2
0.085	B3
0.091	B4
0.098	B5

The binders below were run against T1, recombinant human CD40-Fc (assay: ELISA, CD40-Fc coated, VHH at 1000 nM).
Protocol: as §1

OD450	Binder
1.54	B1
1.68	B2
1.67	B3
1.64	B4
1.57	B5

These binders were tested against T5, Human 41BB antigen (BLI) (human, UniProt Q07011 24-183) (assay: BLI, VHH-His on anti-His tips, human 41BB in solution;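 note: association tracked for 200 s, after which dissociation was followed in 1×PBS free of 41BB protein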).
T5 construct: also called 41BB protein
T5 sequence (Q07011 24-183 limits assumed): as the sequence (Q07011 24-183) above
Protocol: Tips were loaded using 20 μg/ml of anti-41BB VHH. Loading proceeded for 300 sec resulting in capture levels of between 1.8 and 2 nm. […] Association was initiated and monitored for 200 sec, after which tips were transferred to 1×PBS buffer without 41BB protein, in order to monitor dissociation.

Kd	koff	kon	Binder
0.657 nM	0.000539 s⁻¹	820000 M⁻¹ s⁻¹	B6
1.82 nM	0.00129 s⁻¹	708000 M⁻¹ s⁻¹	B7
4.55 nM	0.00276 s⁻¹	606000 M⁻¹ s⁻¹	B8
2.57 nM	0.00252 s⁻¹	979000 M⁻¹ s⁻¹	B9
29.2 nM	0.00919 s⁻¹	314000 M⁻¹ s⁻¹	B10
3.17 nM	0.00264 s⁻¹	834000 M⁻¹ s⁻¹	B12

What follows are binders tested against T2, 4-1BB Fc (assay: ELISA, 4-1BB Fc coated, VHH at 0.005 nM).
Protocol: as §2

OD450	Binder
0.066	B6
0.067	B7
0.064	B8
0.063	B9
0.068	B10
0.064	B11
0.064	B12

What follows are binders tested against T6, Human CD40 antigen (recombinant, BLI) (human, UniProt P25942 21-193) (assay: BLI, VHH-His on anti-His tips, human CD40 in solution;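 note: kinetics measured at 30 °C in PBS pH 7.2, association tracked for 200 s, then dissociation followed in PBS lacking CD40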).
T6 construct: also called rh-CD40
T6 sequence (P25942 21-193 limits assumed): as the sequence (P25942 21-193) above

Kd	koff	kon	Binder
1.43 nM	0.000806 s⁻¹	564000 M⁻¹ s⁻¹	B1
< 0.001 nM	1e-06 s⁻¹	779000 M⁻¹ s⁻¹	B2
< 0.001 nM	1e-06 s⁻¹	784000 M⁻¹ s⁻¹	B3
0.0047 nM	3.59e-06 s⁻¹	765000 M⁻¹ s⁻¹	B4
0.106 nM	7.65e-05 s⁻¹	722000 M⁻¹ s⁻¹	B5

— patent publication US20250376535A1 (BEIJING STARMAB BIOMED TECHNOLOGY, published 2025)
